One substance from publication PMC10926671 can be followed below.

The experiment deals with H3K27me3 peptide. Briefly: ITC. (ITC needs no label: the signal is the heat of the interaction.)

“MBP-BP1 (maltose-binding protein-tagged bromo-adjacent homology-plant homeodomain domain containing protein 1) (natural protein)” gave a Kd of 16.2 µM.

A word on the Kd: it is a measure of binding affinity in units of concentration. The low end stands for a tighter complex, the high end for a looser complex.
